The values that follow come from PMC11189522, “Exploring the sequence-function space of microbial fucosidases” (Communications Chemistry, 2024).

The subject of data set [1] is C[C@@H]1O[C@@H](Oc2ccc([N+](=O)[O-])cc2Cl)[C@@H](O)[C@H](O)[C@@H]1O. Put plainly: purified protein. The note with it: pH 6.0; 37.0 °C.
Data set [2] has as its target T1, BaGH29^26A (Bifidobacterium asteroides, UniProt A0A0F4KU40).
T1 construct: gene JF69_08700
Kind of data set: X-ray crystallography. The data set is classed as binding. The note with it: co-crystallised with 5 mM 2'FL; active site.

Substrate in data set [3]: C[C@@H]1O[C@@H](Oc2ccc([N+](=O)[O-])cc2Cl)[C@@H](O)[C@H](O)[C@@H]1O
Put plainly: purified protein. The note with it: 50 mM citrate pH 6, 37 °C. It is filed as biochemical, Bifidobacterium asteroides.

Substrate in data set [4]: C[C@@H]1O[C@@H](Oc2ccc([N+](=O)[O-])cc2Cl)[C@@H](O)[C@H](O)[C@@H]1O
Kind of data set: purified protein. The data set is classed as biochemical, Sphaerochaeta globosa. The note with it: 50 mM citrate pH 6, 37 °C.

Substrate in data set [5]: C[C@@H]1O[C@@H](Oc2ccc([N+](=O)[O-])cc2Cl)[C@@H](O)[C@H](O)[C@@H]1O
Kind of data set: purified protein. The data set is classed as biochemical, Porphyromonas gingivalis. The settings on record: 50 mM citrate pH 6, 37 °C.

Substrate in data set [6]: C[C@@H]1O[C@@H](Oc2ccc([N+](=O)[O-])cc2Cl)[C@@H](O)[C@H](O)[C@@H]1O
Kind of data set: purified protein. It is filed as biochemical, Streptococcus mitis. The note with it: 50 mM citrate pH 6, 37 °C.

Substrate in data set [7]: C[C@@H]1O[C@@H](Oc2ccc([N+](=O)[O-])cc2Cl)[C@@H](O)[C@H](O)[C@@H]1O
Put plainly: purified protein. The data set is classed as biochemical, Sphingopyxis terrae. The settings on record: 50 mM citrate pH 6, 37 °C.

Substrate in data set [8]: C[C@@H]1O[C@@H](Oc2ccc([N+](=O)[O-])cc2Cl)[C@@H](O)[C@H](O)[C@@H]1O
Put plainly: purified protein. The data set is classed as biochemical, Tannerella forsythia. The note with it: 50 mM citrate pH 6, 37 °C.

Substrate in data set [9]: C[C@@H]1O[C@@H](Oc2ccc([N+](=O)[O-])cc2Cl)[C@@H](O)[C@H](O)[C@@H]1O
Kind of data set: purified protein. It is filed as biochemical, Niastella yeongjuensis. The note with it: 50 mM citrate pH 6, 37 °C.

Substrate in data set [10]: C[C@@H]1O[C@@H](Oc2ccc([N+](=O)[O-])cc2Cl)[C@@H](O)[C@H](O)[C@@H]1O
Put plainly: purified protein. The settings on record: pH 6.0; 37.0 °C. This is another data set of the same source.

As to RsGH29^3A (Rhodopirellula sp. SWK7), the Km in data set [1] was 668.00 ± 69.040 µM. As for “FbGH29^26A (Firmicutes bacterium CAG:345)”, the Michaelis constant (Km) in data set [1] amounted to 188.10 ± 32.870 µM.

Turning to `C[C@@H]1O[C@@H](O)[C@@H](O)[C@H](O)[C@@H]1O` [Fuc], the X-ray crystallography entry in data set [2] was “resulting in a complex with Fuc bound in the active site”. For the molecule LaGH29^3A (Lysobacter antibioticus), the Km in data set [1] turned out to be 208.10 ± 33.240 µM.

For the molecule BsGH29^44B (Bacteroides sp. SM23_62), the Michaelis constant (Km) in data set [1] came out at 299.60 ± 25.340 µM.

B1: BaGH29^26A (Bifidobacterium asteroides) (protein)
chain: MSDTVEWFKQAKYGMMIHWGLYSLLGGEYQGKSSSNYAEWVQSKLQIPNKEYERLTQAFNPIYFDADAIIDLAKRCGMQYLVVTTKHHDGFAMYRSLVDPYNVYDATPFHRDVIGELSLACRKAGLRFGLYYSQDLDWHEPDGGGYLSNDIETAGTTWDNSWDFTGEKNYDRAFKHKIMPQIEEIMSNYGEISVAWFDVPMTLSDEQSQTIYDTVKRLQPDCLINSRLGNGRYDYVSLGDNEIPEDSDASDKATSDGNVDYNSIEGFKPSKLGLYETAGTINDSWGFAYHDQNWKSPQTIHDYKAHLNKYGINYLLNVGLDGLGRVPMAAEQALLGARALEA
In the case of B1, in [3], the Km came out at 222.00 ± 20.100 µM and the kcat is 12.108 s⁻¹.

B2: SgGH29^9A (Sphaerochaeta globosa str. Buddy) (protein)
chain: MKHEAVQQWLDLQFGLFIHFGLYSLPGGVWKGERITRGYSEQILSHGYLPQADYEALTEQFSLPEFNPKHIVTTAKQAGMRYLVITTKHHDGFCLFDTNTTDYKSTNAACKRDIVKDLSDECKKQGLAFGIYFSWIDWHFSEAAAISSHNSDPIPSSHQRLNIAQLTELLSNYGPMCELWMDMGAPTAEQSQEVYDLVQSLQPQCMVNGRIWNDKQDFLTMGDNQLPAVPLNCPWQTPASIYKETWGYRSWQVRGDRDEKIQELSDTARKVVQEGGNYLLNIGLMGTGAIQSFEQEVLEGIGTVLAKNPLKREQNKRILPKIVPGQLCAEPLVAYRYTGTEYYSYRPIPTTLCWALQLNEDTSICIGWESDQGLAREQKLCLEIAGKQYYSSLQKGRTSDTFITALKLKKGKHEICLHTIGDELKRPELVDTTLRLVLRKEGK
As for B2, in data set [4], the Km worked out at 495.20 ± 171.80 µM and the turnover number (kcat) was found to be 2.4117 s⁻¹.

B3: PgGH29^1B (Porphyromonas gingivalis ATCC 33277) (protein)
chain: GQGQEVYYPGSVVFPADATLEQKVEMAAKVVPTLQQLAWQQMELTAFLHFGINTFTDSEWGDGKEDPALFNPVELDARQWVRILHEAGFRMVILTAKHHDGFCLWPTATTRHSVASSPWREGKGDVVKEVRAACEEYGMKFGIYLSPWDRNAECYGDSHRYNRFFVSQLTELLTHYGEVHEVWFDGANGEGPNGKRQEYDWETFYDTIRRLQPQAVMAIMGDDVRWVGNERGLGRTTEWSATVLTPGIYSRSKTERNRLGIRENSPDLGSREVLKEAGEIFWYPSEVDVSIRPGWFYHAAEDKKVKSLDKLVDIYFQSVGYNSVLLLNVPPDRRGLIHEADALRLKEWADYLGRAFAHDRVVDSARYAVVQEHAVEEYALESKTHINILMLQEDITKGQRTEAFTVEAWVDGAWQEIGRGTTIGYKRLLRIPAVETDRIRVRIEQCRLPVNLCRVAVYYAEPPEQVVADESWNDIPRADWKLLSDDPLTIDLGREVMLRAFTYAPYKAEAKPTTAVRYRLAVSEDGRQWREIPTMGEFANVINNPLPQTVDMNQIVRTRFIRLDATAASGDKAVITMQEIGVTVE
Regarding B3, in [5], the Michaelis-Menten constant (Km) was 302.10 ± 9.6900 µM and the catalytic constant (kcat) was determined as 1.8767 s⁻¹.

B4: SmGH29^1B (Streptococcus mitis B6) (protein)
chain: MVREIKPHGPLPSQAQLAYLEDELAAFIHFGPNTFYDQEWGTGQEDSERFNPTRLDAREWVRVLKEMGFKKLILVVKHHDGFVLYPTAYTDYSVKASPWRNGEGDLLLEVSQAATEFDMDMGVYLSPWDAHSPLYHVDQEADYNAYYLAQLKEILSNPAYGNGGKFAEVWMDGARGEGAQKVNYEFEKWFETIRDLQGDCLIFSTEGTSIRWIGNERGYAGDPLWQKVNPDKLGTEAALDYLQHGDSSGTIFSIGEADVSIRPGWFYHEEQDPKSLEELVEIYFHSVGRGTPLLLNIPPNQDGLFDEKDIKRLYEFATYRNELYKEDLALGAKVYGPALSADFACHHLTDGLESSSWASDADLPIQLELDLGFPKTFDVIELREDLKLGQRIAAFHVQVEVDGVWQEFGTGFTVGHKRLLRGPLVEAQKVRVMITESQDLPVLTKISLYKTPSLSQKEVVQGLAFAEKSLSVAKGETLHFRIERSESNTPLEAKISIQPGTGVHGIAYQDEIQVLQFQAGESKKDLCLPTLHFAADKTLDFYLNLTVDGQLVDQLQVQVS
In the case of B4, in data set [6], the Km was 289.50 ± 14.610 µM and the catalytic constant (kcat) is 0.865 s⁻¹.

B5: StGH29^nc (Sphingopyxis terrae subsp. ummariensis) (protein)
chain: AATVTGAGLGPQPRFPITGLPVLNPILRLYPEKSVFRSGDIRFGVGELEMMIPFLGTGEIVWSVNVSEAKRYRIALCYSTVNETQPVTISVNGQDVPFAAPRTKGYFIPHPEGPVDDPGDPDTDGFWRMREYYLFERKPVAGEVDLVRGVNVVKLKVTAPKGKEAFRLRSIELTPVDKVAEIEADLTRQRANRANTDWFANAGYGMWFHFLDLTTPRVGPRKSYEDAVNALDVPKLAKMVDDCGARYLIWTVNHGNPTCPAPIKAWERLHPGMTTKRDLIMELADELAKYNIELMLYQNCPGTGGLIQQHQRAIDTPTFSEVEYANQLIDVFNEFGARYGTKVKGWWLDSWFQTMESYPNLPNEAINRAIKSGNRNCMSSFNGWAFPNEVECQDYWCGEITDLPAKPFGARYLKDGPAAGLQAHSAIKLDAPWFHVTENMEMEPPLYSARELADYIAICQRDQAPVTLGVGIYQDGTIGPKSYAVLTELRGLIRKGKARR
With B5, in [7], the Michaelis constant (Km) came to 290.60 ± 19.810 µM and the kcat is 0.00733 s⁻¹.

B6: TfFuc1^8A (Tannerella forsythia 92A2) (protein)
chain: PAQPGYTPSADNLKARETFQDDKFGIFIHWGIYSMLADGEWVMHNKNLNWEEYAKLASGFYPAKFNAAEWVAAIKASGAKYITITSRHHDGFSMYATQQSDYNIVDATPFKRDVIHELADECRKQGIRLHLYYSHLDWRRDDYYPLGRTGKGTGRTTQGKWEDYCAFMNNQLTELLTNYGLIGAIWFDGMWDKDIYPDGMTAKTWNLNEQYTLIHRLQPACLIGNNHHITPFAGEDIQIFERDLPGENKAGLSGQDISRLPLETCETMNGMWGYKITDQDYKSTKILIQYLVKAAGKNANLLMNVGPQPNGELPTVAVQRLREMGEWMKIYAPTIQGTRGGVVTPRDWGVTTQKGKTLYVHVLNLDDKALFLPYAGNKLKSAVEYQSRKSVRFIQDRDGILLKFTDKPHSPDYVLELTFANELPLN
Take B6: in data set [8], the Michaelis constant (Km) came out at 153.70 ± 21.810 µM and the kcat came out at 8.9117 s⁻¹.

B7: NyGH29^4A (Niastella yeongjuensis) (protein)
chain: QTYSPNWESLDARPAPQWFKDAKFGIFIHWGVYSVPAWAPVGKDYAVYSKYSEWYWNRLVTDSSKVGKAFRAYHNSTYGPNFKYQDFAPLFKAELFNPEQWADVFKNAGAQYVVLTSKHHDGFALWPSAEAWNWNAADVGPHKDLAGELTNAVKEKGLHMGFYYSLYEWFNPLYKSDIDKYVSEHMMPQLKDLVNRYKPDIIWPDGEWEHPSETWKSTQFLAWLYNESPVKNTVVVNDRWGKETRSKHGGYYTTEYDIVHNEDASKKQFEHPWEECRGIGGSFGYNRNETLGDYETSDAVIHMLIQKVARGGNLLLDIGPAADGTIPVIMQQRLADMGAWLKTNGEAIFGTTATKQPSINGAWFTQKNMDLYVILTAKMDKPLTFDLATAPGKATLLGVNKKVTVSYRSGKCTINPLELYPNLPAGGYAWVIKLEGAAGK
For the molecule B7, in data set [9], the Michaelis constant (Km) is 279.80 ± 10.820 µM and the kcat came to 0.00383 s⁻¹.

B8: RiGH29^2A (Roseburia intestinalis) (protein)
chain: MSEQQKEQQLLETVDRIIAEGPYQPAWSSLMQTKTPDWFKQKRFGIFIHWGVYSVPANSNEWYPRNMYIEGMPAYEHHIKTYGSQKDFGYKDFIPMFHAEKFDPAEWVRLFKEAGAGYVFPVAEHHDGFQMYKSELSHWNSAEMGPKRDVLGELKAEIEKQGLTFCTSSHRAEHWFFLGHGKEFDSDIKEPLQKGDLYWPSMPEPDAEDLYGEPYPTEEFLNDWLARTAEIILNYKPSLLYFDWWVQHQAFKPYLKKLAAFYYNCGVKWGKDVKICYKHDAMMFGSGIVEVERGGFAEAKPYDWQTDTAVARNSWCYTDTLDYKSSNEIICTLVDVVSKNGNLLLNIGPKADGTIPDGDRAILEDLAKWMKVNSEAVIGANVWRKSMEGPTAAAEGQFQDQKELKFTNKDYRFTINHGNIYAIALQCPKDGVFCIRSLADSSDQNVPEFHGIIESVDILGYDGRLQWSVDGEGLHVTAPGIDSEFPVVVRVRPE
With B8, the Michaelis-Menten constant (Km) in data set [10] was 302.30 ± 7.0500 µM.

A word on the Km: it is the substrate concentration at which the rate is half of its maximum. The kcat is the number of substrate molecules converted per active site and unit of time at saturation.
